Source: PMC10705692

Key:
[1] = whole-cell patch clamp, HEK293T, tau desensitization; details: glycan lost
[2] = whole-cell patch clamp, HEK293T, 10 s domoate; details: glycan lost; control: GluK2 WT
[3] = whole-cell patch clamp, 3 ms glutamate, tau deactivation; details: glycan lost
[4] = paired-pulse whole-cell patch clamp, tau recovery; details: glycan lost; control: GluK2 WT

B1: GluK2 KAR: T277A (protein)
parent chain: MKIISPVLSNLVFSRSIKVLLCLLWIGYSQGTTHVLRFGGIFEYVESGPMGAEELAFRFAVNTINRNRTLLPNTTLTYDTQKINLYDSFEASKKACDQLSLGVAAIFGPSHSSSANAVQSICNALGVPHIQTRWKHQVSDNKDSFYVSLYPDFSSLSRAILDLVQFFKWKTVTVVYDDSTGLIRLQELIKAPSRYNLRLKIRQLPADTKDAKPLLKEMKRGKEFHVIFDCSHEMAAGILKQALAMGMMTEYYHYIFTTLDLFALDVEPYRYSGVNMTGFRILNTENTQVSSIIEKWSMERLQAPPKPDSGLLDGFMTTDAALMYDAVHVVSVAVQQFPQMTVSSLQCNRHKPWRFGTRFMSLIKEAHWEGLTGRITFNKTNGLRTDFDLDVISLKEEGLEKIGTWDPASGLNMTESQKGKPANITDSLSNRSLIVTTILEEPYVLFKKSDKPLYGNDRFEGYCIDLLRELSTILGFTYEIRLVEDGKYGAQDDVNGQWNGMVRELIDHKADLAVAPLAITYVREKVIDFSKPFMTLGISILYRKPNGTNPGVFSFLNPLSPDIWMYILLAYLGVSCVLFVIARFSPYEWYNPHPCNPDSDVVENNFTLLNSFWFGVGALMQQGSELMPKALSTRIVGGIWWFFTLIIISSYTANLAAFLTVERMESPIDSADDLAKQTKIEYGAVEDGATMTFFKKSKISTYDKMWAFMSSRRQSVLVKSNEEGIQRVLTSDYAFLMESTTIEFVTQRNCNLTQIGGLIDSKGYGVGTPMGSPYRDKITIAILQLQEEGKLHMMKEKWWRGNGCPEEESKEASALGVQNIGGIFIVLAAGLVLSVFVAVGEFLYKSKKNAQLEKRSFCSAMVEELRMSLKCQRRLKHKPQAPVIVKTEEVINMHTFNDRRLPGKETMA
increases: other: desensitization rate ([1]; control: GluK2 WT) | other: desensitization rate [2] | other: deactivation rate ([3]; control: GluK2 WT) | other: rate of recovery from desensitization [4]

B2: GluK2 KAR: T277A/R775A (protein)
parent chain: MKIISPVLSNLVFSRSIKVLLCLLWIGYSQGTTHVLRFGGIFEYVESGPMGAEELAFRFAVNTINRNRTLLPNTTLTYDTQKINLYDSFEASKKACDQLSLGVAAIFGPSHSSSANAVQSICNALGVPHIQTRWKHQVSDNKDSFYVSLYPDFSSLSRAILDLVQFFKWKTVTVVYDDSTGLIRLQELIKAPSRYNLRLKIRQLPADTKDAKPLLKEMKRGKEFHVIFDCSHEMAAGILKQALAMGMMTEYYHYIFTTLDLFALDVEPYRYSGVNMTGFRILNTENTQVSSIIEKWSMERLQAPPKPDSGLLDGFMTTDAALMYDAVHVVSVAVQQFPQMTVSSLQCNRHKPWRFGTRFMSLIKEAHWEGLTGRITFNKTNGLRTDFDLDVISLKEEGLEKIGTWDPASGLNMTESQKGKPANITDSLSNRSLIVTTILEEPYVLFKKSDKPLYGNDRFEGYCIDLLRELSTILGFTYEIRLVEDGKYGAQDDVNGQWNGMVRELIDHKADLAVAPLAITYVREKVIDFSKPFMTLGISILYRKPNGTNPGVFSFLNPLSPDIWMYILLAYLGVSCVLFVIARFSPYEWYNPHPCNPDSDVVENNFTLLNSFWFGVGALMQQGSELMPKALSTRIVGGIWWFFTLIIISSYTANLAAFLTVERMESPIDSADDLAKQTKIEYGAVEDGATMTFFKKSKISTYDKMWAFMSSRRQSVLVKSNEEGIQRVLTSDYAFLMESTTIEFVTQRNCNLTQIGGLIDSKGYGVGTPMGSPYADKITIAILQLQEEGKLHMMKEKWWRGNGCPEEESKEASALGVQNIGGIFIVLAAGLVLSVFVAVGEFLYKSKKNAQLEKRSFCSAMVEELRMSLKCQRRLKHKPQAPVIVKTEEVINMHTFNDRRLPGKETMA
increases: other: desensitization rate ([1]; control: R775A) | other: deactivation rate ([3]; control: R775A)
